Source: the supplement of paper PMC6379048

Key:
Experiment in all cases: Kd (EC50 corrected by depletion factor)
CHERP = target: T1, CHERP (UniProt Q8IWX8)
T1 sequence: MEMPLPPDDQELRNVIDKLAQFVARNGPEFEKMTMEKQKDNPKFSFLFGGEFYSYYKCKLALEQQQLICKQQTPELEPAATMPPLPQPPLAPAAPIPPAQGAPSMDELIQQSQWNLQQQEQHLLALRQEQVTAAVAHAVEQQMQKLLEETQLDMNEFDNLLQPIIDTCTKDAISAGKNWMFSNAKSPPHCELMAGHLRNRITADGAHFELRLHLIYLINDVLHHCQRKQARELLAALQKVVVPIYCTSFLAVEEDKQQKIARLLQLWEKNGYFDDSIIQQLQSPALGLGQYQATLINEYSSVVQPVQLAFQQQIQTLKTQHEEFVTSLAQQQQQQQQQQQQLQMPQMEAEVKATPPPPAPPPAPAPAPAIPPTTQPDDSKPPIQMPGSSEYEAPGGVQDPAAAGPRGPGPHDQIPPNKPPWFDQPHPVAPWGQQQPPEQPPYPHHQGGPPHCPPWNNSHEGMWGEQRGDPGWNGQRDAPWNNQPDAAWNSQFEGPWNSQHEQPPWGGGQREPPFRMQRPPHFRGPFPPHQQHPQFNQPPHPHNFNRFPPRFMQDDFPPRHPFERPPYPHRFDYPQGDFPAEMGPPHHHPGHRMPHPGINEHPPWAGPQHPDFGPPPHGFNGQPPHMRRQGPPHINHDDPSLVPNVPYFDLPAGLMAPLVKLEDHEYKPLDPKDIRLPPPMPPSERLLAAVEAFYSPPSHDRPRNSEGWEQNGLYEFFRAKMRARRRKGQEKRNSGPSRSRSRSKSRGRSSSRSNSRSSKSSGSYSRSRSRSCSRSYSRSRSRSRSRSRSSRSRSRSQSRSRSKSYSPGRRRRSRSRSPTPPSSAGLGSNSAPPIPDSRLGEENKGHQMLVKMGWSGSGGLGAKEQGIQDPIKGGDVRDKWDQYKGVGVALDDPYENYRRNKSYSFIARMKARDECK
Method in brief: (§1)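 To obtain EC50, data were fitted with a four-parameter log-logistic model; Kd was then EC50 multiplied by a protein-dependent depletion factor. Beforehand, free RNA oligos (0 nM to 30 μM) were pre-incubated with HEK293-FT lysate (2.5 mg protein/well) for 1 h at 4°C. The lysate then spent 30 min at 4°C with the same 5′-amino-C6 oligos coupled to NHS-Sepharose beads, and bound proteins were quantified by label-free LC-MS/MS, normalised to the control.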

CPSF2 = target: T2, CPSF2 (UniProt Q9P2I0)
T2 sequence: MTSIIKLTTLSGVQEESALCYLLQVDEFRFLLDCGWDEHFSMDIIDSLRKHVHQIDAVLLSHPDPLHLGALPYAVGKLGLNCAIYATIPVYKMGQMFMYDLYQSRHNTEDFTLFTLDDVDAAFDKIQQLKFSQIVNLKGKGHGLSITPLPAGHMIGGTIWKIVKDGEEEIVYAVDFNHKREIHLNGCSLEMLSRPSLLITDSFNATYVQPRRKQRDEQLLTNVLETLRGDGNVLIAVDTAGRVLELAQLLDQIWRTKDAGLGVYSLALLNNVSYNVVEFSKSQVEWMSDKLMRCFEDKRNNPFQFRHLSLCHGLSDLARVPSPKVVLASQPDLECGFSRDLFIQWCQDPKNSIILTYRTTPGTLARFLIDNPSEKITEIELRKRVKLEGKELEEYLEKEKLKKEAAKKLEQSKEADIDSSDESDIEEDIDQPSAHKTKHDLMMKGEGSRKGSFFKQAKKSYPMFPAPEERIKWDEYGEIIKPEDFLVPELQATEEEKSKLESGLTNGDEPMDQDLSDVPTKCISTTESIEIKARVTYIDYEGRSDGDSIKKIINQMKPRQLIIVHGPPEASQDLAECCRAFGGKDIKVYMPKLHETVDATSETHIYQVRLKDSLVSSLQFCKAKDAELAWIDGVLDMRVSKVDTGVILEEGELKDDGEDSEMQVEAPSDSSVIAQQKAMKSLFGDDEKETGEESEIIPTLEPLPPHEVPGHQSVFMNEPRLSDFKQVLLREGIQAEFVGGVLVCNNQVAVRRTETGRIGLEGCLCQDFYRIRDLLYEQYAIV
Method in brief: as §1

CPSF3 = target: T3, CPSF3 (UniProt Q9UKF6)
T3 sequence: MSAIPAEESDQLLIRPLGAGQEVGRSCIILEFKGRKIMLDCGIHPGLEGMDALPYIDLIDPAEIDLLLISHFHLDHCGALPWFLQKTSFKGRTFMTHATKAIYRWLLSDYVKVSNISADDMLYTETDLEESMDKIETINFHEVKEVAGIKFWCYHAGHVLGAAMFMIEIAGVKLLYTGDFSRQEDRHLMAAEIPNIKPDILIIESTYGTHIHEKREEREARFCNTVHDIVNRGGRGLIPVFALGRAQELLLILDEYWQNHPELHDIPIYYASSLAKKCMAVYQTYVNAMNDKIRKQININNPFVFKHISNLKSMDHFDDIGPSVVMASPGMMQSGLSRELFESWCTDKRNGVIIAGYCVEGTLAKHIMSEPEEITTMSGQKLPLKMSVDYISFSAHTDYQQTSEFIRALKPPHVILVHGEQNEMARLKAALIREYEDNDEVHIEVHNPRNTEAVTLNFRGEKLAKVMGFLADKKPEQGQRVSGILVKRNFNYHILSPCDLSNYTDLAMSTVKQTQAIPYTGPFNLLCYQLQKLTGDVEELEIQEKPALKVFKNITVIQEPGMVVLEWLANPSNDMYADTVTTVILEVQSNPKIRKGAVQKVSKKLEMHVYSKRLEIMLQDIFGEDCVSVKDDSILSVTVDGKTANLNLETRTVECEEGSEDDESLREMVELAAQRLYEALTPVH
Method in brief: as §1

Sequence | Kd (CHERP) [nM] | Kd (CPSF2) [nM] | Kd (CPSF3) [nM]
AAUAAA | 255 | 5.66 | 5.97
UAUUUAU | 19.4 | 452 | 270
